# Data published in the supplement of paper PMC9112550, “Optimization of the antimicrobial peptide Bac7 by deep mutational scanning” (BMC Biology, 2022).
# Test system: Escherichia coli TOP10
# Assay: shrunken log2 fold change of peptide-encoding DNA abundance (4.5 h post-induction vs induction); higher = less antimicrobial activity (less host growth inhibition)
# Details: time post-induction: 4.5 h; library: site-saturation at positions 5, 18, 19, 20
# 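Further: peptides expressed intracellularly from a pBAD plasmid library in pooled LB shake-flask culture, induced with 0.3% L-arabinose, DNA abundance read by NGS, three biological replicates, DESeq2 with apeglm shrinkage.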
row,Sequence,shrunken log2 fold change
1,RRIRLRPPRLPRPRPRPTFWPRP,0.303
2,RRIRRRPPRLPRPRPRPAGKPRP,0.211
3,RRIRARPPRLPRPRPRPPDYPRP,0.406
4,RRIRDRPPRLPRPRPRPPDTPRP,0.662
5,RRIRVRPPRLPRPRPRPNIHPRP,-0.556
6,RRIRIRPPRLPRPRPRPTGRPRP,-0.0536
7,RRIRHRPPRLPRPRPRPATRPRP,0.0209
8,RRIRVRPPRLPRPRPRPKHGPRP,-0.0119
9,RRIRNRPPRLPRPRPRPLKFPRP,-0.212
10,RRIRPRPPRLPRPRPRPMCDPRP,0.164
11,RRIRRRPPRLPRPRPRPPIPPRP,0.271
12,RRIRTRPPRLPRPRPRPVKPPRP,0.00237
13,RRIRPRPPRLPRPRPRPQTRPRP,0.227
14,RRIRARPPRLPRPRPRPMFDPRP,-0.101
15,RRIRHRPPRLPRPRPRPHTNPRP,-0.672
16,RRIRQRPPRLPRPRPRPQLMPRP,-0.166
17,RRIRDRPPRLPRPRPRPYVWPRP,-0.579
18,RRIRCRPPRLPRPRPRPHWPPRP,0.149
19,RRIRQRPPRLPRPRPRPLVLPRP,0.00943
20,RRIRIRPPRLPRPRPRPMEPPRP,-0.101
21,RRIRMRPPRLPRPRPRPLLCPRP,0.473
22,RRIRLRPPRLPRPRPRPVKMPRP,-0.327
23,RRIRDRPPRLPRPRPRPMWIPRP,-0.306
24,RRIRARPPRLPRPRPRPHSPPRP,0.122
25,RRIRCRPPRLPRPRPRPKNFPRP,-0.555

row,Sequence,shrunken log2 fold change
1,RRIRPRPPRLPRPRPRPSIEPRP,-0.0734
2,RRIRVRPPRLPRPRPRPLIHPRP,-0.393
3,RRIRHRPPRLPRPRPRPIMKPRP,-0.317
4,RRIRYRPPRLPRPRPRPNCAPRP,-0.214
5,RRIRMRPPRLPRPRPRPYSIPRP,-0.0122
6,RRIRTRPPRLPRPRPRPGWWPRP,0.158
7,RRIRHRPPRLPRPRPRPFITPRP,-0.799
8,RRIRYRPPRLPRPRPRPFNTPRP,-0.468
9,RRIRFRPPRLPRPRPRPMCTPRP,0.0284
10,RRIRERPPRLPRPRPRPVFHPRP,-0.238
11,RRIRPRPPRLPRPRPRPTDTPRP,-0.00249
12,RRIRHRPPRLPRPRPRPQAWPRP,0.00326
13,RRIRWRPPRLPRPRPRPSSEPRP,0.0908
14,RRIRARPPRLPRPRPRPNCQPRP,0.267
15,RRIRLRPPRLPRPRPRPDCHPRP,0.092
16,RRIRGRPPRLPRPRPRPVCAPRP,1.06
17,RRIRTRPPRLPRPRPRPGRIPRP,-0.171
18,RRIRHRPPRLPRPRPRPAWYPRP,-0.0318
19,RRIRARPPRLPRPRPRPDDTPRP,0.468
20,RRIRERPPRLPRPRPRPHYEPRP,-0.231
21,RRIRGRPPRLPRPRPRPYYEPRP,0.0278
22,RRIRWRPPRLPRPRPRPGLLPRP,0.403
23,RRIRGRPPRLPRPRPRPAAYPRP,0.929
24,RRIRCRPPRLPRPRPRPHNAPRP,-0.171
25,RRIRLRPPRLPRPRPRPSELPRP,-0.195

row,Sequence,shrunken log2 fold change
1,RRIRARPPRLPRPRPRPMSGPRP,0.0632
2,RRIRDRPPRLPRPRPRPEGFPRP,0.638
3,RRIRHRPPRLPRPRPRPSQIPRP,-0.0599
4,RRIRPRPPRLPRPRPRPAATPRP,0.809
5,RRIRCRPPRLPRPRPRPHCGPRP,-0.156
6,RRIRTRPPRLPRPRPRPLPAPRP,0.364
7,RRIRERPPRLPRPRPRPNFHPRP,-0.382
8,RRIRHRPPRLPRPRPRPWACPRP,-0.051
9,RRIRIRPPRLPRPRPRPPCFPRP,-0.11
10,RRIRTRPPRLPRPRPRPIIAPRP,0.00466
11,RRIRARPPRLPRPRPRPKLGPRP,0.023
12,RRIRFRPPRLPRPRPRPYKRPRP,-0.827
13,RRIRHRPPRLPRPRPRPHERPRP,-0.00134
14,RRIRSRPPRLPRPRPRPWWAPRP,-0.0137
15,RRIRNRPPRLPRPRPRPASGPRP,0.247
16,RRIRNRPPRLPRPRPRPRKPPRP,-0.0565
17,RRIRCRPPRLPRPRPRPVCFPRP,-0.141
18,RRIRWRPPRLPRPRPRPKRYPRP,0.0352
19,RRIRRRPPRLPRPRPRPVPPPRP,0.77
20,RRIRWRPPRLPRPRPRPNWPPRP,0.214
21,RRIRERPPRLPRPRPRPCSVPRP,-0.0625
22,RRIRMRPPRLPRPRPRPSPAPRP,1.83
23,RRIRNRPPRLPRPRPRPYPVPRP,0.00968
24,RRIRDRPPRLPRPRPRPYCMPRP,-0.28
25,RRIRNRPPRLPRPRPRPRNQPRP,-0.182

row,Sequence,shrunken log2 fold change
1,RRIRNRPPRLPRPRPRPSKWPRP,-0.213
2,RRIRERPPRLPRPRPRPGIRPRP,-0.0819
3,RRIRFRPPRLPRPRPRPEGPPRP,0.0494
4,RRIRCRPPRLPRPRPRPSETPRP,0.108
5,RRIRWRPPRLPRPRPRPWVWPRP,0.0506
6,RRIRCRPPRLPRPRPRPVTYPRP,0.0559
7,RRIRSRPPRLPRPRPRPIHMPRP,-0.397
8,RRIRPRPPRLPRPRPRPLLFPRP,0.0745
9,RRIRSRPPRLPRPRPRPNWYPRP,-0.382
10,RRIRVRPPRLPRPRPRPLDRPRP,-0.117
11,RRIRIRPPRLPRPRPRPPETPRP,0.246
12,RRIRERPPRLPRPRPRPCFKPRP,-0.0311
13,RRIRPRPPRLPRPRPRPGSLPRP,-0.0171
14,RRIRCRPPRLPRPRPRPHSAPRP,0.0702
15,RRIRHRPPRLPRPRPRPVRVPRP,0.0942
16,RRIRARPPRLPRPRPRPSPYPRP,-0.333
17,RRIRERPPRLPRPRPRPLFFPRP,-0.225
18,RRIRNRPPRLPRPRPRPATLPRP,-0.365
19,RRIRCRPPRLPRPRPRPNTWPRP,-0.539
20,RRIRERPPRLPRPRPRPFCGPRP,-0.058
21,RRIRQRPPRLPRPRPRPYTAPRP,-0.219
22,RRIRRRPPRLPRPRPRPNGAPRP,-0.151
23,RRIRKRPPRLPRPRPRPKKQPRP,-0.119
24,RRIRERPPRLPRPRPRPEPYPRP,-0.0697
25,RRIRARPPRLPRPRPRPEAKPRP,0.73

row,Sequence,shrunken log2 fold change
1,RRIRERPPRLPRPRPRPYPHPRP,-0.0727
2,RRIRERPPRLPRPRPRPSMTPRP,0.0627
3,RRIRARPPRLPRPRPRPSMMPRP,0.162
4,RRIRVRPPRLPRPRPRPVQDPRP,0.0752
5,RRIRNRPPRLPRPRPRPDGQPRP,-0.0321
6,RRIRSRPPRLPRPRPRPSCKPRP,-0.797
7,RRIRGRPPRLPRPRPRPTRRPRP,0.663
8,RRIRYRPPRLPRPRPRPHWMPRP,-0.233
9,RRIRARPPRLPRPRPRPNGRPRP,-0.11
10,RRIRCRPPRLPRPRPRPMQCPRP,0.0136
11,RRIRPRPPRLPRPRPRPDLWPRP,0.344
12,RRIRSRPPRLPRPRPRPNAQPRP,0.0609
13,RRIRIRPPRLPRPRPRPFTWPRP,-0.924
14,RRIRFRPPRLPRPRPRPQQQPRP,0.0282
15,RRIRLRPPRLPRPRPRPAHMPRP,-0.0737
16,RRIRERPPRLPRPRPRPVCKPRP,0.0272
17,RRIRVRPPRLPRPRPRPKMGPRP,0.0797
18,RRIRKRPPRLPRPRPRPGHLPRP,0.0738
19,RRIRMRPPRLPRPRPRPGDHPRP,0.147
20,RRIRTRPPRLPRPRPRPSLYPRP,-0.522
21,RRIRKRPPRLPRPRPRPCAHPRP,0.0754
22,RRIRIRPPRLPRPRPRPWKSPRP,-0.0108
23,RRIRRRPPRLPRPRPRPYLPPRP,-0.456
24,RRIRSRPPRLPRPRPRPTMWPRP,0.214
25,RRIRHRPPRLPRPRPRPMPCPRP,-0.105
